Test results: publication PMC7925594 (Nature Communications, 2021)

How the values were obtained:
[1] = target: T1, linear tetra-ubiquitin (UniProt P0CG48 1-76; P0CG48 1-76; P0CG48 1-76; P0CG48 1-76); assay: co-IP; purified recombinant HA-N4BP1 or domain deletion forms incubated with ubiquitin chains in assay buffer (50 mM Tris-HCl pH 7.4, 150 mM NaCl, 1 mM dithiothreitol) for 2 h at 4 °C; immunoprecipitation with anti-HA (mouse IgG as control); immunoblot; conditions: both partners purified
T1 construct: ubiquitin, unit 1 of 4; ubiquitin, unit 2 of 4; ubiquitin, unit 3 of 4; ubiquitin, unit 4 of 4; also called linear tetra-ubiquitin chains; source: bought: LifeSensors (recombinant)

[2] = target: T2, linear hepta-ubiquitin (UniProt P0CG48 1-76; P0CG48 1-76; P0CG48 1-76; P0CG48 1-76; P0CG48 1-76; P0CG48 1-76; …); assay: as above; conditions: both partners purified
T2 construct: ubiquitin, unit 1 of 7; ubiquitin, unit 2 of 7; ubiquitin, unit 3 of 7; ubiquitin, unit 4 of 7; ubiquitin, unit 5 of 7; ubiquitin, unit 6 of 7; ubiquitin, unit 7 of 7; The reagents name a supplier only for the tetra-ubiquitins; also called linear ubiquitin chains; linear polyubiquitin chains
T2 sequence (P0CG48 1-532, one chain of several): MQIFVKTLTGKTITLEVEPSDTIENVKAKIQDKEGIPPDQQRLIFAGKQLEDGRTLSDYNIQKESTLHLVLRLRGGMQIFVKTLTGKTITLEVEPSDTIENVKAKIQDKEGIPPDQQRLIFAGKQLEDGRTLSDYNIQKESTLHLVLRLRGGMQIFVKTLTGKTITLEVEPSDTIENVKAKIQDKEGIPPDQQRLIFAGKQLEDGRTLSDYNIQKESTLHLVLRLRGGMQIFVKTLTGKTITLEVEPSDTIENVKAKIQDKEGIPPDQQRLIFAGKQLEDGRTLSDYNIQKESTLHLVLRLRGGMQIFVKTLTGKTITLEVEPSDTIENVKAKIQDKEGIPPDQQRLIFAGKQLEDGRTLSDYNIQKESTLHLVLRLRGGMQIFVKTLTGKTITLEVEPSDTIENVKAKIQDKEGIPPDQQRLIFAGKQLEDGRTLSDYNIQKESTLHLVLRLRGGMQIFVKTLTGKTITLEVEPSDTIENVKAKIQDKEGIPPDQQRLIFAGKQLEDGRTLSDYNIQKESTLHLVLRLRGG

T1 sequence (P0CG48 1-304, one chain of several): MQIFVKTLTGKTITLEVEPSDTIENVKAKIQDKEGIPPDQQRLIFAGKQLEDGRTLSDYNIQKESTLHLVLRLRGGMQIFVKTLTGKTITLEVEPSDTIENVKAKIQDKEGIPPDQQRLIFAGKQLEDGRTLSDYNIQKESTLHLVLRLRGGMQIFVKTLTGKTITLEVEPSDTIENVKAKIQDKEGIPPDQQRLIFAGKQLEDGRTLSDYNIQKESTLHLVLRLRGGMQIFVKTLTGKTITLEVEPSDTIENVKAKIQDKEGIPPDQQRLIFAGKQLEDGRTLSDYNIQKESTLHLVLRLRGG

binding result [1]: binds
binding result [2]: binds
B1: HA-tagged N4BP1 (full-length) (natural protein, UniProt O75113 1-896, looked up)
chain: MAARAVLDEFTAPAEKAELLEQSRGRIEGLFGVSLAVLGALGAEEPLPARIWLQLCGAQEAVHSAKEYIKGICEPELEERECYPKDMHCIFVGAESLFLKSLIQDTCADLCILDIGLLGIRGSAEAVVMARSHIQQFVKLFENKENLPSSQKESEVKREFKQFVEAHADNYTMDLLILPTSLKKELLTLTQGEENLFETGDDEVIEMRDSQQTEFTQNAATGLNISRDETVLQEEARNKAGTPVSELTKQMDTVLSSSPDVLFDPINGLTPDEEALSNERICQKRRFSDSEERHTKKQFSLENVQEGEILHDAKTLAGNVIADLSDSSADSENLSPDIKETTEEMEYNILVNFFKTMGYSQEIVEKVIKVYGPSTEPLLLLEEIEKENKRFQEDREFSAGTVYPETNKTKNKGVYSSTNELTTDSTPKKTQAHTQQNMVEKFSQLPFKVEAKPCTSNCRINTFRTVPIEQKHEVWGSNQNYICNTDPETDGLSPSVASPSPKEVNFVSRGASSHQPRVPLFPENGLHQQPEPLLPNNMKSACEKRLGCCSSPHSKPNCSTLSPPMPLPQLLPSVTDARSAGPSDHIDSSVTGVQRFRDTLKIPYKLELKNEPGRTDLKHIVIDGSNVAITHGLKKFFSCRGIAIAVEYFWKLGNRNITVFVPQWRTRRDPNVTEQHFLTQLQELGILSLTPARMVFGERIASHDDRFLLHLADKTGGIIVTNDNFREFVNESVSWREIITKRLLQYTFVGDIFMVPDDPLGRSGPRLEEFLQKEVCLRDMQPLLSALPNVGMFDPSFRVPGTQAASTSHQPPTRIQGAPSSHWLPQQPHFPLLPALPSLQQNLPMPAQRSSAETNELREALLKIFPDSEQRLKIDQILVAHPYMKDLNALSAMVLD
notes: the vector of the other experiments is only called a mammalian expression vector; also called HA-N4BP1; F.L; source: HEK293T or N4BP1-/- HEK293T, transfected, in lysate; also overexpressed in HEK293T and purified (immunoprecipitation, HA peptide elution, Superdex 200 gel filtration); not shown: HA, N-terminal, kept
